Experimental data as given in patent US20160083712.

Tests used:
[1] = system: CSN6, soluble MPN domain construct of Example 2
Nedd8-AMC = Nedd8-AMC (UniProt Q15843)
Sequence of Nedd8-AMC (Q15843 whole entry, looked up): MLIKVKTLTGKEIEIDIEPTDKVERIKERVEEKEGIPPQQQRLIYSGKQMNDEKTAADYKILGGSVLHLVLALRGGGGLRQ

Sequence of CSN6, soluble MPN domain construct of Example 2 (chain, as listed by the source): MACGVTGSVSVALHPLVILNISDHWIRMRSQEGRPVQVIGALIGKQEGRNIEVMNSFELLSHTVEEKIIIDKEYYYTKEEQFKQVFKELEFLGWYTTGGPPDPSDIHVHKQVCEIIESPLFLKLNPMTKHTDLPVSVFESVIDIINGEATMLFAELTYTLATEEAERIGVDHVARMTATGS
Sequence of CSN51-257 wild type (human CSN5 residues 1-257, GST tag cleaved off) (chain, as listed by the source): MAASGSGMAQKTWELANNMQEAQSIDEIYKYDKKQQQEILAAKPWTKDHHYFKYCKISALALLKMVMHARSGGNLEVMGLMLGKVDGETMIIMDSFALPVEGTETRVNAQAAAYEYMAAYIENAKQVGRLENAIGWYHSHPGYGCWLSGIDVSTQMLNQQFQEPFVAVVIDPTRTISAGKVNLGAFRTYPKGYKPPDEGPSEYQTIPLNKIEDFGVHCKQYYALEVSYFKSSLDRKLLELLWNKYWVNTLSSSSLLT
Sequence of CSN51-257 R106T (human CSN5 residues 1-257 with Arg106 substituted by threonine) (chain, as listed by the source R106T): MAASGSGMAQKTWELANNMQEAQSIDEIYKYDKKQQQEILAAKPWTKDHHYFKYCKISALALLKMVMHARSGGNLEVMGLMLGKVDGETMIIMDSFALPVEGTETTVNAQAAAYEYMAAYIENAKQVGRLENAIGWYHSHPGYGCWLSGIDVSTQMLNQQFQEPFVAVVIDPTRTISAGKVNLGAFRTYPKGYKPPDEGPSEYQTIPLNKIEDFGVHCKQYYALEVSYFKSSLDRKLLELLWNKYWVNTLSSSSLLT
Sequence of GST-CSN51-257 R106T (GST-tagged human CSN5 residues 1-257 with Arg106 substituted by threonine) (chain, as listed by the source R106T): as above
Sequence of CSN5 R106T, activatory mutant form, construct of Example 2 (chain, as listed by the source R106T): as above

| Substance | CSN5 isopeptidase activity (substrates LRGG-AMC, Nedd8-AMC, Nedd8-cullin 1) [1] | isopeptidase activity (hydrolysis of Nedd8-AMC, fluorescence) (Nedd8-AMC) | isopeptidase activity (hydrolysis of LRGG-AMC, fluorescence) (LRGG-AMC) |
| --- | --- | --- | --- |
| CSN5 R106T, activatory mutant form, construct of Example 2 | this effect is consistently more marked in the context of the activatory mutant form of CSN5, CSN5 R106T than the WT form | – | – |
| CSN5 WT, soluble MPN domain construct of Example 2 | CSN6 is able to significantly enhance CSN5 isopeptidase activity | – | – |
| CSN51-257 R106T (human CSN5 residues 1-257 with Arg106 substituted by threonine) | – | the R106T substitution is sufficient to restore constitutive isopeptidase activity against two isopeptidase substrates, LRGG-AMC and Nedd8-AMC | – |
| CSN51-257 wild type (human CSN5 residues 1-257, GST tag cleaved off) | – | the CSN51-257 WT form is void of isopeptidase activity | – |
| GST-CSN51-257 R106T (GST-tagged human CSN5 residues 1-257 with Arg106 substituted by threonine) | – | – | the R106T substitution is sufficient to restore constitutive isopeptidase activity against two isopeptidase substrates, LRGG-AMC and Nedd8-AMC |
| GST-CSN51-257 wild type (GST-tagged human CSN5 residues 1-257) | – | – | the CSN51-257 WT form is void of isopeptidase activity |
